Laboratory results taken from CN101309933A (MEDIMMUNE LLC, dated 2008).

B1: 抗-EphA2抗体1H3 (antibody, V domains shown)
VH: EVQLLESGGGLVQPGGSLRLSCAASGFTFSMYAMRWVRQAPGKGLEWVSVIGPSGGWTPYADSVKGRFTISRDNSKNTLYLQMNSLRAEDTAVYYCARDRGIYGMDVWGQGTTVTVSS
VL: DIQMTQSPSFLSASVGDRVTITCRASQGISSYLAWYQQKPGKAPKLLIYAASTLQSGVPSRFSGSGSGTEFTLTISSLQPEDFATYYCLELNNYPFTFGLGTKVHIK
B2: 抗-EphA2抗体3F2 (antibody, V domains shown)
VH: EVQLVESGGGVVRPGGSLRLSCAASGFTVSDYSMNWVRQAPGKGLEWIGFIRNKANAYTTEYSASVKGRFTISRDDSKNTLYLQMNSLKTEDTAVYYCTTYPRYHAMDSWGQGTMVTVSS
VL: AIQLTQSPSSLSASVGDRVTITCRASQSISNNLHWYLQKPGQSPQLLIYYGFQSISGVPSRFSGSGSGTDFTLTISSLQPEDFATYYCQQANSWPLTFGGGTKLEIK

What was measured:
[1] = target: T1, 小鼠EphA2 (expressed on cells) (mouse, UniProt Q03145 26-977); test: flow cytometry on cell lines, 1 μg antibody, PE goat anti-human IgG
T1 construct: whole, on cells; also called mouse EphA2; EphA2 on CT26, 4T1

[2] = target: T2, 人EphA2 (expressed on cells) (human, UniProt P29317 24-976); test: as above
T2 construct: whole, on cells; also called human EphA2; EphA2 on PC3, HUVEC and other human cell lines
T2 sequence (P29317 24-976): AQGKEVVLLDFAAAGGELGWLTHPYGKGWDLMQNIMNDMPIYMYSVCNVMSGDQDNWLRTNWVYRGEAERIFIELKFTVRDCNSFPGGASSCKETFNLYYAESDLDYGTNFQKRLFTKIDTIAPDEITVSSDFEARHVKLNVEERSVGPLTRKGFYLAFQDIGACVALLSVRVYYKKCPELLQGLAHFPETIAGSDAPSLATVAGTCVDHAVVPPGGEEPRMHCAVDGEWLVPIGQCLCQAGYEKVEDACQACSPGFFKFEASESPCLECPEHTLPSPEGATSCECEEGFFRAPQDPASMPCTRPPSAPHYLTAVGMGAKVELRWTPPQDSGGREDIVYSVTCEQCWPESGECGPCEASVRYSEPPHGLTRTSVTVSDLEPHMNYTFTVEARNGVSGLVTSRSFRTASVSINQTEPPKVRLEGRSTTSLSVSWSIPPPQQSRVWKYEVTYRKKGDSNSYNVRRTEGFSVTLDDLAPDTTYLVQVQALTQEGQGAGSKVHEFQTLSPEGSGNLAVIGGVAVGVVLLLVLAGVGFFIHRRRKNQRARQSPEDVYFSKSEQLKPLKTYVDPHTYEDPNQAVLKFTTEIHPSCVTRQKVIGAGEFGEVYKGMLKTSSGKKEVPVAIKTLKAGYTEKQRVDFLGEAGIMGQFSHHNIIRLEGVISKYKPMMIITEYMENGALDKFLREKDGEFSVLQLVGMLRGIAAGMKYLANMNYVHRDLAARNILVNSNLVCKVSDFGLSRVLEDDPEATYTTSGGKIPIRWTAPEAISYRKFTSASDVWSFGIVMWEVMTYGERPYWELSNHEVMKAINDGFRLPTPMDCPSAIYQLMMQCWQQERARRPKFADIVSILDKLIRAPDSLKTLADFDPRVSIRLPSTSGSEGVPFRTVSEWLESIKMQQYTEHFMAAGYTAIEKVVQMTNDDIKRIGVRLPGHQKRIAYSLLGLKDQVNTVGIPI

T1 sequence (Q03145 26-977): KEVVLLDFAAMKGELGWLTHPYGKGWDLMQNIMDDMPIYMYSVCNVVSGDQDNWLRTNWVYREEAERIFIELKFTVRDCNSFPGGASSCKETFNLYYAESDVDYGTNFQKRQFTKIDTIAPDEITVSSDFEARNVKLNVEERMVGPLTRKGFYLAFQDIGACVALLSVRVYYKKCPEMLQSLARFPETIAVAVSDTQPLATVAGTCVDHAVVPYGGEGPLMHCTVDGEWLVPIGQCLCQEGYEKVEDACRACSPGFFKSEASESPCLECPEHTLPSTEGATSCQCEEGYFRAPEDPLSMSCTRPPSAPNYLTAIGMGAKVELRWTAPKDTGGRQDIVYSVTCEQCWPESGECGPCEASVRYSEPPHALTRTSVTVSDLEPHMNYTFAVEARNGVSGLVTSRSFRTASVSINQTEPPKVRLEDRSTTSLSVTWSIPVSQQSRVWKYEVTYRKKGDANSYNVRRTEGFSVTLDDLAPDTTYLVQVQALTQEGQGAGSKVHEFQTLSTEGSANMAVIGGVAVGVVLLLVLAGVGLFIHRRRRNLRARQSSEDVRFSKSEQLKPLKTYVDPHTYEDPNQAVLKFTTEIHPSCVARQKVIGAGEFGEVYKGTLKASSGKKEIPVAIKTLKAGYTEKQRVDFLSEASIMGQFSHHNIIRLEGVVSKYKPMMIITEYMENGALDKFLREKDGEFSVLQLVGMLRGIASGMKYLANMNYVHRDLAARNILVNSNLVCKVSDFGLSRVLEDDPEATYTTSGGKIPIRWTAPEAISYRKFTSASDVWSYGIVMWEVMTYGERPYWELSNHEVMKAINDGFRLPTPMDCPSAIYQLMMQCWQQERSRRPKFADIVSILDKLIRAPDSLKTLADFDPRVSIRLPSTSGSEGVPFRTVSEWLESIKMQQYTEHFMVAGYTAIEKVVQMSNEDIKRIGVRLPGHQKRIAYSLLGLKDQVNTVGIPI

Row | Binder | binding result [1] | binding result [2]
1 | B1 | binds | binds
2 | B2 | binds | binds
